Experiment [1] concerns the target Rpn11 (S. cerevisiae (yeast)) (UniProt P43588).
Experiment [2] shares this target. This is another data set of the same source.
Experiment [3] has the same target. The source holds these as a separate data set.
The next experiment addresses Rpn11 (S. cerevisiae (yeast), UniProt P43588 1-306). In words: cell-based or functional assay.
The target in experiment [4] is T1, Rpn9 (S. cerevisiae (yeast)) (UniProt Q04062).
T1 sequence: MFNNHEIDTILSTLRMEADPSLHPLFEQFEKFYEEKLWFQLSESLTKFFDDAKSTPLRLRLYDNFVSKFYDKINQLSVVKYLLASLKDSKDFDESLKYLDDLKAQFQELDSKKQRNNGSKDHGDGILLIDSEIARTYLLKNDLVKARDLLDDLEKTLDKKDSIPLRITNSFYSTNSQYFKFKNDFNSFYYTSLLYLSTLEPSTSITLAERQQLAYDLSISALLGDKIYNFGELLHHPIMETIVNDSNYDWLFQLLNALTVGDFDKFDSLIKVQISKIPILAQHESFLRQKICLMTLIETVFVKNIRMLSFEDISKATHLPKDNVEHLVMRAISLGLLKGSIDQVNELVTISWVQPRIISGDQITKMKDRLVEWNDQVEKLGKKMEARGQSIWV

Rpn11 (S. cerevisiae (yeast)), sequence (P43588 whole entry): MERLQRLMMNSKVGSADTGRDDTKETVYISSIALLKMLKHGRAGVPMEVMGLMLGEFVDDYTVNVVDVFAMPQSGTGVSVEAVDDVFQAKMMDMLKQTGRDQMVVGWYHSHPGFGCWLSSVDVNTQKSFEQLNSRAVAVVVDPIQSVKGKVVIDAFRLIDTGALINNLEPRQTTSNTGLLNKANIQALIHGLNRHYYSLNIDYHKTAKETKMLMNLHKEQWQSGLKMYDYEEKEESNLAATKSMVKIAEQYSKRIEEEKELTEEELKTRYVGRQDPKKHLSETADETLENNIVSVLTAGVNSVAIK
Rpn11, sequence (P43588 whole entry): as above

B1: Rpn5 (Y273A) (natural protein)
chain: MSRDAPIKADKDYSQILKEEFPKIDSLAQNDCNSALDQLLVLEKKTRQASDLASSKEVLAKIVDLLASRNKWDDLNEQLTLLSKKHGQLKLSIQYMIQKVMEYLKSSKSLDLNTRISVIETIRVVTENKIFVEVERARVTKDLVEIKKEEGKIDEAADILCELQVETYGSMEMSEKIQFILEQMELSILKGDYSQATVLSRKILKKTFKNPKYESLKLEYYNLLVKISLHKREYLEVAQYLQEIYQTDAIKSDEAKWKPVLSHIVYFLVLSPAGNLQNDLIHKIQNDNNLKKLESQESLVKLFTTNELMRWPIVQKTYEPVLNEDDLAFGGEANKHHWEDLQKRVIEHNLRVISEYYSRITLLRLNELLDLTESQTETYISDLVNQGIIYAKVNRPAKIVNFEKPKNSSQLLNEWSHNVDELLEHIETIGHLITKEEIMHGLQAK
Consider B1, for which the Ub-AMC cleavage rate of Rpn11 in the isolated lid with this variant, relative to the isolated Rpn11/Rpn8 dimer (% of the isolated Rpn11/Rpn8 dimer) in experiment [1] was 61.

B2: Rpn5 K283A (natural protein)
chain: MSRDAPIKADKDYSQILKEEFPKIDSLAQNDCNSALDQLLVLEKKTRQASDLASSKEVLAKIVDLLASRNKWDDLNEQLTLLSKKHGQLKLSIQYMIQKVMEYLKSSKSLDLNTRISVIETIRVVTENKIFVEVERARVTKDLVEIKKEEGKIDEAADILCELQVETYGSMEMSEKIQFILEQMELSILKGDYSQATVLSRKILKKTFKNPKYESLKLEYYNLLVKISLHKREYLEVAQYLQEIYQTDAIKSDEAKWKPVLSHIVYFLVLSPYGNLQNDLIHAIQNDNNLKKLESQESLVKLFTTNELMRWPIVQKTYEPVLNEDDLAFGGEANKHHWEDLQKRVIEHNLRVISEYYSRITLLRLNELLDLTESQTETYISDLVNQGIIYAKVNRPAKIVNFEKPKNSSQLLNEWSHNVDELLEHIETIGHLITKEEIMHGLQAK
Take B2: the Ub-AMC cleavage rate of Rpn11 in the isolated lid with this variant, relative to the free MPN heterodimer (% of the free MPN heterodimer) in experiment [2] worked out at 41.

B3: Rpn5 (H282A) (natural protein)
chain: MSRDAPIKADKDYSQILKEEFPKIDSLAQNDCNSALDQLLVLEKKTRQASDLASSKEVLAKIVDLLASRNKWDDLNEQLTLLSKKHGQLKLSIQYMIQKVMEYLKSSKSLDLNTRISVIETIRVVTENKIFVEVERARVTKDLVEIKKEEGKIDEAADILCELQVETYGSMEMSEKIQFILEQMELSILKGDYSQATVLSRKILKKTFKNPKYESLKLEYYNLLVKISLHKREYLEVAQYLQEIYQTDAIKSDEAKWKPVLSHIVYFLVLSPYGNLQNDLIAKIQNDNNLKKLESQESLVKLFTTNELMRWPIVQKTYEPVLNEDDLAFGGEANKHHWEDLQKRVIEHNLRVISEYYSRITLLRLNELLDLTESQTETYISDLVNQGIIYAKVNRPAKIVNFEKPKNSSQLLNEWSHNVDELLEHIETIGHLITKEEIMHGLQAK
B3 registered a Ub-AMC cleavage rate of Rpn11 in the isolated lid with this variant, relative to the free MPN heterodimer (% of the free MPN heterodimer) in experiment [2] of 31.

B4: Rpn5 (H282A,K283A) (natural protein)
chain: MSRDAPIKADKDYSQILKEEFPKIDSLAQNDCNSALDQLLVLEKKTRQASDLASSKEVLAKIVDLLASRNKWDDLNEQLTLLSKKHGQLKLSIQYMIQKVMEYLKSSKSLDLNTRISVIETIRVVTENKIFVEVERARVTKDLVEIKKEEGKIDEAADILCELQVETYGSMEMSEKIQFILEQMELSILKGDYSQATVLSRKILKKTFKNPKYESLKLEYYNLLVKISLHKREYLEVAQYLQEIYQTDAIKSDEAKWKPVLSHIVYFLVLSPYGNLQNDLIAAIQNDNNLKKLESQESLVKLFTTNELMRWPIVQKTYEPVLNEDDLAFGGEANKHHWEDLQKRVIEHNLRVISEYYSRITLLRLNELLDLTESQTETYISDLVNQGIIYAKVNRPAKIVNFEKPKNSSQLLNEWSHNVDELLEHIETIGHLITKEEIMHGLQAK
In experiment [2], B4 returned a Ub-AMC cleavage rate of Rpn11 in the isolated lid with this variant, relative to the free MPN heterodimer (% of the free MPN heterodimer) of 51.

B5: Rpn5 (N275A) (natural protein)
chain: MSRDAPIKADKDYSQILKEEFPKIDSLAQNDCNSALDQLLVLEKKTRQASDLASSKEVLAKIVDLLASRNKWDDLNEQLTLLSKKHGQLKLSIQYMIQKVMEYLKSSKSLDLNTRISVIETIRVVTENKIFVEVERARVTKDLVEIKKEEGKIDEAADILCELQVETYGSMEMSEKIQFILEQMELSILKGDYSQATVLSRKILKKTFKNPKYESLKLEYYNLLVKISLHKREYLEVAQYLQEIYQTDAIKSDEAKWKPVLSHIVYFLVLSPYGALQNDLIHKIQNDNNLKKLESQESLVKLFTTNELMRWPIVQKTYEPVLNEDDLAFGGEANKHHWEDLQKRVIEHNLRVISEYYSRITLLRLNELLDLTESQTETYISDLVNQGIIYAKVNRPAKIVNFEKPKNSSQLLNEWSHNVDELLEHIETIGHLITKEEIMHGLQAK
With B5, the Ub-AMC cleavage rate of Rpn11 in the isolated lid with this variant, relative to the isolated MPN heterodimer (% of the isolated MPN heterodimer) in experiment [3] came out at 51.

B6: Rpn5 (natural protein, S. cerevisiae (yeast))
chain: MSRDAPIKADKDYSQILKEEFPKIDSLAQNDCNSALDQLLVLEKKTRQASDLASSKEVLAKIVDLLASRNKWDDLNEQLTLLSKKHGQLKLSIQYMIQKVMEYLKSSKSLDLNTRISVIETIRVVTENKIFVEVERARVTKDLVEIKKEEGKIDEAADILCELQVETYGSMEMSEKIQFILEQMELSILKGDYSQATVLSRKILKKTFKNPKYESLKLEYYNLLVKISLHKREYLEVAQYLQEIYQTDAIKSDEAKWKPVLSHIVYFLVLSPYGNLQNDLIHKIQNDNNLKKLESQESLVKLFTTNELMRWPIVQKTYEPVLNEDDLAFGGEANKHHWEDLQKRVIEHNLRVISEYYSRITLLRLNELLDLTESQTETYISDLVNQGIIYAKVNRPAKIVNFEKPKNSSQLLNEWSHNVDELLEHIETIGHLITKEEIMHGLQAK
Consider B6, for which the “Ub-AMC cleavage rate of Rpn11 in the isolated wild-type lid against the free Rpn11/Rpn8 dimer (500 nM enzyme, 2.5 μM Ubiquitin-AMC, 30°C, lid buffer)” value with Rpn11 came out at 5 fold lower.

B7: Rpn8 (K86A,K88A) (natural protein)
chain: MSLQHEKVTIAPLVLLSALDHYERTQTKENKRCVGVILGDANSSTIRVTNSFALPFEEDEKNSDVWFLDHNYIENMNEMCKKINAAEALIGWYHSGPKLRASDLKINELFKKYTQNNPLLLIVDVKQQGVGLPTDAYVAIEQVKDDGTSTEKTFLHLPCTIEAEEAEEIGVEHLLRDVRDQAAGGLSIRLTNQLKSLKGLQSKLKDVVEYLDKVINKELPINHTILGKLQDVFNLLPNLGTPDDDEIDVENHDRINISNNLQKALTVKTNDELMVIYISNLVRSIIAFDDLIENKIQNKKIQEQRVKDKQSKVSDDSESESGDKEATAPLIQRKNKKN
In experiment [4], B7 yielded a Ub-AMC cleavage rate of Rpn11 in the isolated lid with this variant, relative to the isolated MPN heterodimer (% of the isolated MPN heterodimer) of 60.

B8: Rpn8 (K86A) (natural protein)
chain: MSLQHEKVTIAPLVLLSALDHYERTQTKENKRCVGVILGDANSSTIRVTNSFALPFEEDEKNSDVWFLDHNYIENMNEMCKKINAAEKLIGWYHSGPKLRASDLKINELFKKYTQNNPLLLIVDVKQQGVGLPTDAYVAIEQVKDDGTSTEKTFLHLPCTIEAEEAEEIGVEHLLRDVRDQAAGGLSIRLTNQLKSLKGLQSKLKDVVEYLDKVINKELPINHTILGKLQDVFNLLPNLGTPDDDEIDVENHDRINISNNLQKALTVKTNDELMVIYISNLVRSIIAFDDLIENKIQNKKIQEQRVKDKQSKVSDDSESESGDKEATAPLIQRKNKKN
Consider B8, for which the Ub-AMC cleavage rate of Rpn11 in the isolated lid with this variant, relative to the free MPN heterodimer (% of the free MPN-heterodimer levels) in experiment [4] came out at 33.

B9: Rpn8 (Q115A) (natural protein)
chain: MSLQHEKVTIAPLVLLSALDHYERTQTKENKRCVGVILGDANSSTIRVTNSFALPFEEDEKNSDVWFLDHNYIENMNEMCKKINAKEKLIGWYHSGPKLRASDLKINELFKKYTANNPLLLIVDVKQQGVGLPTDAYVAIEQVKDDGTSTEKTFLHLPCTIEAEEAEEIGVEHLLRDVRDQAAGGLSIRLTNQLKSLKGLQSKLKDVVEYLDKVINKELPINHTILGKLQDVFNLLPNLGTPDDDEIDVENHDRINISNNLQKALTVKTNDELMVIYISNLVRSIIAFDDLIENKIQNKKIQEQRVKDKQSKVSDDSESESGDKEATAPLIQRKNKKN
In the case of B9, in experiment [4], the Ub-AMC cleavage rate of Rpn11 in the isolated lid with this variant, relative to the isolated MPN heterodimer (% of isolated MPN levels) is 33.

B10: Rpn8 (K88A) (natural protein)
chain: MSLQHEKVTIAPLVLLSALDHYERTQTKENKRCVGVILGDANSSTIRVTNSFALPFEEDEKNSDVWFLDHNYIENMNEMCKKINAKEALIGWYHSGPKLRASDLKINELFKKYTQNNPLLLIVDVKQQGVGLPTDAYVAIEQVKDDGTSTEKTFLHLPCTIEAEEAEEIGVEHLLRDVRDQAAGGLSIRLTNQLKSLKGLQSKLKDVVEYLDKVINKELPINHTILGKLQDVFNLLPNLGTPDDDEIDVENHDRINISNNLQKALTVKTNDELMVIYISNLVRSIIAFDDLIENKIQNKKIQEQRVKDKQSKVSDDSESESGDKEATAPLIQRKNKKN
The molecule B10 yielded a Ub-AMC cleavage rate of Rpn11 in the isolated lid with this variant, relative to the free MPN heterodimer (% of the free MPN-heterodimer levels) in experiment [4] of 45.

The values are drawn from PMC4749569, “Atomic structure of the 26S proteasome lid reveals the mechanism of deubiquitinase inhibition” (eLife, 2016).
